Experimental data published in paper PMC8657434, “Aedes aegypti Piwi4 Structural Features Are Necessary for RNA Binding and Nuclear Localization”.
Changes are numbered by the printed parent chain.

What was measured:
Test in all cases: SPR; SPR (Biacore T100, CM5-neutravidin, 5'-biotin RNA immobilized): 10 mM HEPES pH 7.4, 150 mM NaCl, 3 mM EDTA, 0.005% P20; steady-state fit; temperature not stated
Conditions in all cases: protein: recombinant; tags: 6xHis (C-terminal); label: 5' biotin; single strand
AePiwi4 PAZ T41R = molecular target: T1, AePiwi4 PAZ T41R (Aedes aegypti, UniProt Q171B3 270-380, T310R)
T1 sequence: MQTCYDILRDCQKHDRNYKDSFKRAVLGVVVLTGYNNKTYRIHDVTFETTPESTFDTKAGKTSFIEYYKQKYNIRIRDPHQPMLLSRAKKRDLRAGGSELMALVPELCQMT

AePiwi4 PAZ WT = molecular target: T2, AePiwi4 PAZ WT (Aedes aegypti, UniProt Q171B3 270-380)
T2 sequence: T1 sequence with R41T

AePiwi4 PAZ T41A = molecular target: T3, AePiwi4 PAZ T41A (Aedes aegypti, UniProt Q171B3 270-380, T310A)
T3 sequence: T1 sequence with R41A

AePiwi4 PAZ Y40A = molecular target: T4, AePiwi4 PAZ Y40A (Aedes aegypti, UniProt Q171B3 270-380, Y309A)
T4 sequence: T1 sequence with Y40A, R41T

AePiwi4 PAZ T39A = molecular target: T5, AePiwi4 PAZ T39A (Aedes aegypti, UniProt Q171B3 270-380, T308A)
T5 sequence: T1 sequence with T39A, R41T

AePiwi4 PAZ F55A = molecular target: T6, AePiwi4 PAZ F55A (Aedes aegypti, UniProt Q171B3 270-380, F324A)
T6 sequence: T1 sequence with R41T, F55A

Binder | Kd (AePiwi4 PAZ T41R) [nM] | Kd (AePiwi4 PAZ WT) [nM] | Kd (AePiwi4 PAZ T41A) [nM] | Kd (AePiwi4 PAZ Y40A) [nM] | Kd (AePiwi4 PAZ T39A) [nM] | binding result (AePiwi4 PAZ F55A) | binding result (AePiwi4 PAZ Y40A)
CGAUAAGUGAUCUUUCAGCACUGCAGAA (ssRNA, 3' terminal 2'-O-methyl) [3'm 28 nt PCLV piRNA] | 570 ± 100 | 1700 ± 800 | 1400 ± 100 | 5500 ± 500 | 980 ± 200 | no binding | –
AUGAGGACAUAAGCCUACGUAGUAUUCC (ssRNA) [3'nm 28 nt scrambled RNA] | – | 2500 ± 100 | – | – | – | – | –
CGAUAAGUGAUCUUUCAGCACUGCAGAA (ssRNA) [3'nm 28 nt PCLV piRNA] | 2000 ± 500 | 5000 ± 2200 | 5600 ± 1200 | – | 2800 ± 400 | no binding | no binding
